Common to all, as to details: protein: recombinant; tags: N-terminal His6 removed by PreScission protease; label: 5' biotin; single strand
Series [1] addresses T1, rnGLD-2 R325A (Rattus norvegicus, UniProt Q5U315 131-484, R325A).
T1 sequence: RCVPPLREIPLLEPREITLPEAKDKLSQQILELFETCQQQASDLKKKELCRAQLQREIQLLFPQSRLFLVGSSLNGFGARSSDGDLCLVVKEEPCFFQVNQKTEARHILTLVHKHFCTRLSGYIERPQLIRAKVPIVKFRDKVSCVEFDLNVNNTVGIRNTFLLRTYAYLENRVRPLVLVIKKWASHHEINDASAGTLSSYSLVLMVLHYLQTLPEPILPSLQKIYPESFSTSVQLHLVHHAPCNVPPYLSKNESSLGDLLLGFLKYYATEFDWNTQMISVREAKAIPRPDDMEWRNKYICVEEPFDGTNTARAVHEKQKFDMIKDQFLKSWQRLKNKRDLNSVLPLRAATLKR
Description: EMSA; 4 uM protein, 50 nM RNA; EMSA: 20 mM Tris-HCl pH 8.0, 100 mM NaCl, 37 C 20 min; 4 uM protein, 50 nM 5' biotinylated RNA; 6% native gel, TAE pH 7.2, 4 C. (Mobility shift assays separate free from complexed probe on a gel.)

The target of series [2] is T2, rnGLD-2 R443A (Rattus norvegicus, UniProt Q5U315 131-484, R443A).
T2 sequence: T1 sequence with A195R, R313A
Described as above.

For series [3], the target named is T3, rnGLD-2 NTase region WT (Rattus norvegicus, UniProt Q5U315 131-484).
T3 sequence: T1 sequence with A195R
The experiment in a line: EMSA; 4 uM protein, 50 nM RNA; described as weak interaction; no Mg2+ listed in binding buffer; EMSA: 20 mM Tris-HCl pH 8.0, 100 mM NaCl, 37 C 20 min; 4 uM protein, 50 nM 5' biotinylated RNA; 6% native gel, TAE pH 7.2, 4 C.

Series [4] concerns the target T4, rnGLD-2 R236A (Rattus norvegicus, UniProt Q5U315 131-484, R236A).
T4 sequence: T1 sequence with R106A, A195R
Description: EMSA; 4 uM protein, 50 nM RNA; efficient/tight binding stated; EMSA: 20 mM Tris-HCl pH 8.0, 100 mM NaCl, 37 C 20 min; 4 uM protein, 50 nM 5' biotinylated RNA; 6% native gel, TAE pH 7.2, 4 C.

Substitutions are numbered along the chain they refer to.

B1: A15 (ssRNA)
RNA: AAAAAAAAAAAAAAA
Turning to B1, the binding result is “no binding” in series [1], “no binding” in series [2], “binds” in series [3] and “binds” in series [4].

The values above are taken from PMC7470959, “Structures of mammalian GLD-2 proteins reveal molecular basis of their functional diversity in mRNA and microRNA processing”.
